Substitutions are numbered along the chain they refer to.
Key:
[1] = tested on: TuAlaRS (Tupanvirus (of Acanthamoeba castellanii)); test: EMSA; conditions: none (in vitro transcript)
EcAlaRS [2] = biological target: T1, EcAlaRS (Escherichia coli, UniProt P00957 1-876); test: EMSA; 5 mM Mg2+; hardly affected vs WT; EMSA: 20 mM HEPES pH 7.5, 20 mM KCl, 5 mM MgCl2, 2 mM DTT, 0.1 µM RNA, 10 min on ice, protein 0.0625-32 µM; 5% native PAGE, 0.5x TBE, 4 °C; conditions: protein: recombinant; label: 5'-32P; tRNA cloverleaf
T1 sequence: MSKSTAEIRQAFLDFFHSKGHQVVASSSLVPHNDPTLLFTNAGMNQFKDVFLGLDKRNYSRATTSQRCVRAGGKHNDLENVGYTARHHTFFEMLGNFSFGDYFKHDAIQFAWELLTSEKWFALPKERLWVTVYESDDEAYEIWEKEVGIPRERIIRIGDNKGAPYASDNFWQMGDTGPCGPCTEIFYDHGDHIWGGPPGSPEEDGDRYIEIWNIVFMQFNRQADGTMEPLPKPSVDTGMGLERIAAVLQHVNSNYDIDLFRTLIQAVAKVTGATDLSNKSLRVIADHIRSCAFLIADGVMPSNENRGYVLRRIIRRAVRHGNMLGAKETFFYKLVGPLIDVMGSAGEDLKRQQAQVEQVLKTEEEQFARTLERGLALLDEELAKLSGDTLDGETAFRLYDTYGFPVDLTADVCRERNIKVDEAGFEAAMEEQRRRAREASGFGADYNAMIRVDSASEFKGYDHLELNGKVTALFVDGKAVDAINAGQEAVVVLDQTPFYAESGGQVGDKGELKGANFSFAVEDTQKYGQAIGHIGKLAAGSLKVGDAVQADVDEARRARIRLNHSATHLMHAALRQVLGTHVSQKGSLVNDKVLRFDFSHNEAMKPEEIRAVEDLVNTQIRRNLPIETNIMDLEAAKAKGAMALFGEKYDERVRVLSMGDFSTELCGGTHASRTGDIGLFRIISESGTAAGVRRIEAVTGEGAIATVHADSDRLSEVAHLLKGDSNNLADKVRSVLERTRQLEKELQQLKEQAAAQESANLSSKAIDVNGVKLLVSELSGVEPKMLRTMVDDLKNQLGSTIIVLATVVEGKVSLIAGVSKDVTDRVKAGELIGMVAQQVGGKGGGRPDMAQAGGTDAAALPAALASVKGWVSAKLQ

EcAlaRS [3] = biological target: T1, EcAlaRS; test: EMSA; 5 mM Mg2+; EMSA: 20 mM HEPES pH 7.5, 20 mM KCl, 5 mM MgCl2, 2 mM DTT, 0.1 µM RNA, 10 min on ice, protein 0.0625-32 µM; 5% native PAGE, 0.5x TBE, 4 °C; conditions: protein: recombinant; label: 5'-32P; tRNA cloverleaf

“GGAGCUAUAGCUUCUAGCUCCACCA [Ec-microAla A3:U70]” showed a Kd fold increase vs WT (fold increase in Kd vs WT) [1] of 3.

Work on GGGAUUUUAGCUUCUAAUUCUACCA [Ce-microAla] yielded a Kd [1] of 400 nM.

Molecule “GGGGCUAUAGCUCAGCUGGGAGAGCGCCUGCUUUGCAAGCAGGAGGUCUGCGGUUCGAUCCCGCAUAGCUCCACCA [EctRNAAla]” has a Kd [1] of 300 nM.

Work on “GGGGCUAUAGCUUCUAGCCCCACCA [Ec-microAla G3:C70]” yielded a Kd fold increase vs WT (fold increase in Kd vs WT) [1] of 3.

GGGGCUAUAGCUUCUAGCUCCACCA [Ec-microAla] gave a Kd [1] of 300 nM.

B1: EctRNAAla delCCA (structured_RNA)
RNA: GGGGCUAUAGCUCAGCUGGGAGAGCGCCUGCUUUGCAAGCAGGAGGUCUGCGGUUCGAUCCCGCAUAGCUCCA
modifications: none (in vitro transcript)
B1: binds (EcAlaRS [2]).

B2: EctRNAAla CCA to UUG (structured_RNA)
RNA: GGGGCUAUAGCUCAGCUGGGAGAGCGCCUGCUUUGCAAGCAGGAGGUCUGCGGUUCGAUCCCGCAUAGCUCCAUUG
modifications: none (in vitro transcript)
B2: binds (EcAlaRS [2]).

B3: EctRNAAla (structured_RNA)
RNA: B2 RNA with U74C, U75C, G76A
modifications: none (in vitro transcript)
B3 showed a Kd (EcAlaRS [3]) of 1000 nM.

From PMC10036535, “A naturally occurring mini-alanyl-tRNA synthetase”
